B1: enzyme from A. terreus: recombinant α-L-rhamnosidase from Aspergillus terreus, prepared internally, secreted in P. pastoris; SEQ ID. 1 (protein, listed as Aspergillus terreus)
chain: MALSISQVAFEHHRTALGIGETQPRVSWRFDGNVSDWEQRAYEIEVKRAGHDADVFRSESSDSVLVPWPSSPLQSGEEATVRVRSFGSDGQHDTPWSDAVTVEPGLLTPDDWHDAVVIASDRPTEVDATHRPIQFRKEFSVDDSYVSARLYITALGLYEARINDQRVGDHVMAPGWQSYQYRHEYNTYDVTDLLKQGPNAIGVTVGEGWYSGRIGYDGGKRNIYGDTLGLLSLLVVTKSDGSKLYIPSDSSWKSSTGPIISSEIYDGEEYDSRLEQKGWSQVGFNSTGWLGTHELSFPKERLASPDGPPVRRVAEHKLANVFSSASGKTVLDFGQNLVGWLRIRVKGPKGQTIRFVHTEVMENGEVATRPLRQAKATDHFTLSGEGVQEWEPSFTYHGFRYVQVDGWPADTPLDENSVTAIVVHSDMERTGYFECSNPLISKLHENILWSMRGNFFSIPTDCPQRDERLGWTGDIHAFSRTANFIYDTAGFLRAWLKDARSEQLNHSYSLPYVIPNIHGNGETPTSIWGDAIVGVPWQLYESFGDKVMLEEQYGGAKDWVDKGIVRNDVGLWDRSTFQWADWLDPKAPADDPGDATTNKYLVSDAYLLHSTDMLANISTSLSKGEEASNYTEWHAKLTKEFQKAWITSNGTMANETQTGLALPLYFDLFPSAEQAQSAAKRLVNIIKQNDYKVGTGFAGTHLLGHTLSKYGESDAFYSMLRQTEVPSWLYQVVMNGTTTWERWDSMLPNGSINPGQMTSFNHYAVGSVGSWLHEVIGGLSPAEPGWRRINIEVVPGGDLQQASTKFLTPYGMASTKWWLDGQDQSCGGFDFHLVAEVPPNTRATVVLPGKGGEKVDVGSGVHEYHVRCVKL
B2: enzyme from A. niger: α-L-rhamnosidase from Aspergillus niger obtained from Megazyme LTD; SEQ ID. 2 (protein)
chain: MAPIALKILLFTSLIVPSISLSDQARNGHARTICEVKPGGSSEIDDVPAIVDALTTCGSGGRVIFSNNTYHINSVMNTTWLDDVEIDLQGTLLWSTNISYWLNHSLPVGYQNQSTAWILGGKDIVFEGHGYGTFNGSGQTWYRYVGSTSNYPRRPNQLTVSGAMGAVFKGLRFVQSQMWTMSIIHTSNSWFDSIYVNNLYDDGGSAQNTDGANTIYSKNITLTNWEVVNGDDSISTKANSTDITIANCTFTSGLGIAIGSIGQYNGAFETVERLKISNITYEKTTHAVYFKTWTGDQVGYPPNGGGGGLGYASDIVATNLKTNNLKGAPFTISQCTTFSGASGNCTNSKFQIRDLVFTDISGTTDSSDVASFQCSAVAPCEDITIENVSLRIAGNTTHAEEYLCGNVDGTVGFNCTGDVCVGSSATGGC
modifications: Aspergillus niger

Columns and labels:
[1] = test system: α-L-rhamnosidase from A. terreus; experiment: Influence of rhamnose excess on rhamnosidase activity (product inhibition); assay type: biochemical, Aspergillus terreus; conditions: pNPR substrate, rhamnose solutions 0.6-3 mM added 1:1:1, pH 6.5, 40° C., 30 minutes
Method: The analysis was performed only for α-l-rhamnosidase from A. terreus. The influence of rhamnose excess on enzyme activity was investigated using the same colorimetric method as described above (See FIG. 1). The pNPR substrate was first dissolved in DMSO, with concentration adjusted to 300 μM in 100 mM sodium phosphate buffer pH 6.5. Enzymes were diluted to concentration of 30 μg/mL in 100 mM sodium phosphate buffer pH 6.5. Following sequence of rhamnose concentrations were prepared in 100 mM sodium phosphate buffer pH 6.5: 0.6 mM, 1.2 mM, 1.8 mM, 2.4 mM, 3 mM. 240 μL of the total reaction mixture was prepared by adding the substrate solution, the enzyme solution and the rhamnose solution in 1:1:1 ratio. The activity assay was performed on 96-well Microtiter UV plate by Thermo Scientific (Waltham, MA USA). All reactions were done at pH 6.5 and in temperature 40° C. The changes in absorbance were monitored at 405 nm for 30 minutes in Microplate reader Varioskan® Flash. The relative activity of α-L-rhamnosidase from A. terreus was measured using pNPR substrate in the excess of rhamnose in the reaction mix. The analysis was performed in order to study product inhibition phenomenon.

[2] = β-D-glucosidase activity assessment, colorimetric method using pNPG; assay type: biochemical
Method: β-D-glucosidase activity of enzyme from A. terreus was determined by a colorimetric method using p-nitrophenyl-β-glucopyranoside (pNPG). The pNPG substrate was first dissolved in DMSO, with concentration adjusted to 200 μM in 100 mM sodium phosphate buffer pH 6.5. To analyse the substrate preference, the pNPG was mixed with pNPR at 1:1 ratio, then dissolved in DMSO, and concentration of such mixture was adjusted to 200 μM in 100 mM sodium phosphate buffer pH 6.5. As a control, pNPR, prepared as above, at concentration of 200 μM was used. Enzyme was diluted to concentration of 20 μg/mL in 100 mM sodium phosphate buffer pH 6.5. The reactions were prepared by mixing the substrate solution with enzyme solution in 1:1 ratio. The activity assay was performed on 96-well Microtiter UV plate by Thermo Scientific (Waltham, MA USA). […] The changes in relative absorbance values were monitored at 405 nm for about 30 minutes in Microplate reader Varioskan® Flash.
pNPG was used as a substrate to monitor β-D-glucosidase activity of enzyme from A. terreus, the pNPR was used as a substrate showing α-l-rhamnopyranoside activity, and mixture of both substrates was used to determine substrate preference (see FIG. 5). […] The absorbance signal was not detected for the reaction with pNPG, and the reaction kinetics observed for pNPR substrate was not impacted by presence of pNPG in the reaction with mixed substrates.

[3] = Rhamnosidase activity assessment, colorimetric method using pNPR; assay type: biochemical; conditions: 40° C.
Method: α-l-Rhamnosidase activity of enzyme from A. terreus and enzyme from A. niger was determined by a colorimetric method using p-nitrophenyl-α-l-rhamnopyranoside (pNPR) (See the chemical formula equation shown in FIG. 1). The pNPR substrate was first dissolved in DMSO, with concentration adjusted to 200 μM in 100 mM sodium phosphate buffer pH 6.5. Enzymes were diluted to concentration of 20 μg/mL in 100 mM sodium phosphate buffer pH 6.5. The reaction was prepared by mixing the substrate solution with enzyme solution in 1:1 ratio. The activity assay was performed on 96-well Microtiter UV plate by Thermo Scientific (Waltham, MA USA). All reactions were done at pH 6.5 and in temperature 40° C. The changes in absorbance were monitored at 405 nm for 60 minutes in Microplate reader Varioskan® Flash. The relative activity of α-L-rhamnosidase from A. terreus and α-L-rhamnosidase from A. niger were measured against the p-NPR. The reaction was monitored in time at 40° C. and pH 6.5 (See FIG. 3). The enzymes caused release of the product—4-nitrophenol. […] The 70% conversion of R2 is plenty sufficient for test purposes, therefore the enzyme with faster kinetics was used for further analysis.

Molecule	effect of added rhamnose on substrate conversion rate [1]	substrate preference, pNPR versus pNPG and mixed substrates ([2]; pNPG mixed with pNPR 1:1, pH 6.5, 40° C.)	absorbance signal at 405 nm with pNPG (β-D-glucosidase activity) ([2]; pNPG, pH 6.5, 40° C., about 30 minutes)	converted substrate at plateau ([3]; pNPR 100 μM, pH 6.5) [%]	time to reach about 70% of converted substrate ([3]; pNPR 100 μM, pH 6.5) [min]	kinetic behaviour compared between the two enzymes ([3]; pNPR, pH 6.5)	substrate converted more than A. terreus enzyme after 60 min ([3]; pNPR 100 μM, pH 6.5, 60 min) [%]
C[C@H](O)[C@H](O)[C@@H](O)[C@@H](O)C=O [rhamnose]	substrate conversion rate decreased						
B1		recognized only pNPR as a substrate	not detected	70	10	acting faster	
B2					30		10

Source: US12371726B2, “Process to produce mono-rhamnolipids” (Conopco, Inc., priority 2021, dated 2025)
